From publication PMC8629787 (Cellular and Molecular Life Sciences: CMLS, 2021)

Target: the molecule itself
Test: SEC

B1: BambL, fucose-binding lectin of Burkholderia ambifaria (recombinant, unlabelled) (natural protein)
chain: not shown
stoichiometry N: 3
